According to paper PMC5629025 (2017):

B1: FLAG-, HA-tagged wild-type Bag-1L [human] / androgen receptor, endogenous in LNCaP cells [human (endogenous in LNCaP)] (parent complex)
chain 1: MAQRGGARRPRGDRERLGSRLRALRPGREPRQSEPPAQRGPPPSGRPPARSTASGHDRPTRGAAAGARRPRMKKKTRRRSTRSEELTRSEELTLSEEATWSEEATQSEEATQGEEMNRSQEVTRDEESTRSEEVTREEMAAAGLTVTVTHSNEKHDLHVTSQQGSSEPVVQDLAQVVEEVIGVPQSFQKLIFKGKSLKEMETPLSALGIQDGCRVMLIGKKNSPQEEVELKKLKHLEKSVEKIADQLEELNKELTGIQQGFLPKDLQAEALCKLDRRVKATIEQFMKILEEIDTLILPENFKDSRLKRKGLVKKVQAFLAECDTVEQNICQETERLQSTNFALAE
chain 2: MEVQLGLGRVYPRPPSKTYRGAFQNLFQSVREVIQNPGPRHPEAASAAPPGASLLLLQQQQQQQQQQQQQQQQQQQQQQQETSPRQQQQQQGEDGSPQAHRRGPTGYLVLDEEQQPSQPQSALECHPERGCVPEPGAAVAASKGLPQQLPAPPDEDDSAAPSTLSLLGPTFPGLSSCSADLKDILSEASTMQLLQQQQQEAVSEGSSSGRAREASGAPTSSKDNYLGGTSTISDNAKELCKAVSVSMGLGVEALEHLSPGEQLRGDCMYAPLLGVPPAVRPTPCAPLAECKGSLLDDSAGKSTEDTAEYSPFKGGYTKGLEGESLGCSGSAAAGSSGTLELPSTLSLYKSGALDEAAAYQSRDYYNFPLALAGPPPPPPPPHPHARIKLENPLDYGSAWAAAAAQCRYGDLASLHGAGAAGPGSGSPSAAASSSWHTLFTAEEGQLYGPCGGGGGGGGGGGGGGGGGGGGGGGEAGAVAPYGYTRPPQGLAGQESDFTAPDVWYPGGMVSRVPYPSPTCVKSEMGPWMDSYSGPYGDMRLETARDHVLPIDYYFPPQKTCLICGDEASGCHYGALTCGSCKVFFKRAAEGKQKYLCASRNDCTIDKFRRKNCPSCRLRKCYEAGMTLGARKLKKLGNLKLQEEGEASSTTSPTEETTQKLTVSHIEGYECQPIFLNVLEAIEPGVVCAGHDNNQPDSFAALLSSLNELGERQLVHVVKWAKALPGFRNLHVDDQMAVIQYSWMGLMVFAMGWRSFTNVNSRMLYFAPDLVFNEYRMHKSRMYSQCVRMRHLSQEFGWLQITPQEFLCMKALLLFSIIPVDGLKNQKFFDELRMNYIKELDRIIACKRKNPTSCSRRFYQLTKLLDSVQPIARELHQFTFDLLIKSHMVSVDFPEMMAEIISVQVPKILSGKVKPIYFHTQ

Variants of: B1
Test: SILAC RIME; LNCaP cells stably expressing FLAG-HA-tagged wild-type or CMut Bag-1L; parent: 21; read off a plot

Row | response [log2 intensity] | Variant
1 | ~19 | chain 1 K231A, chain 1 K232A, chain 1 K279A
